Measured values reported in the DeepSol protein solubility set.

Assay: soluble on expression in E. coli; label from the status in PepcDB or PDB records

Row | Sequence | soluble on expression in E. coli
1 | MGSDKIHHHHHHMATPADKLAESLAVLKTLRDQGRKALRSEDMGRTHRERLMRNGFIKEVMKGWYIPSRPDEPAGESTSWYASFWVFCASYLESRFGDEWCVSPEQSIHLHTGNWSVPKQLLIRSPKGGNKPTGLLHGTSILDVRLELPPASDTEIKEGMRIYNLPAALVGCSQTQFSAHPTEMRTALTMMQDASELLGRLLAGGHSKIAGWLAGACRSIGRKQIADDILGAMRAAGYTVNENNPFKDQAQIIFSPRETSPYVNRMRMNWASMREDVLHSFPAAPGLPADSAKYLKQVEAVYVNDAYNSLSIEGYKVSAALIEKVRSGNWNPDSNKDDQDHRNALAARGYWQAFQKVRESIGKVLSQENAGTVAESDHAQWYRELFGPSVTAGILKAADLAGYRNSPVYIRRSMHTPPGKEAVRELMPVLFELLQQENEAAVRVVLGHFMFVYIHPYIDGNGRIGRFLMNLMSASGGYSWIVIPLEQRNDYMAALESASVEGDIKPFSTLLANLVSTG | not soluble
2 | MGSDKIHHHHHHMATVISMINLKGGVGKTTLTVAMAEFMAAEYGLKVLVVDLDPQTNATVALINELEWRKRNIRGQTLLNIFLDHLSKYQVFSLEEAIVHNVSNVNGGIEGLDLLPSSIDLIEVHDEFLQAIPSLPINPLHLLDDVLRAALSAYDIVLIDCPPDLGLICQNGLMISDYYIIPTIPDILSTYGIPQIINRIGRLQRENSISIQPLGLVISKYRQQSEIHKNQANLLKIHAPKAGYRQVFNTFIPEGNLAAMVMDYTLHFNSLREKYNYSKYYQIYKALTEEVLSCVQ | not soluble
3 | MGSDKIHHHHHHMAVKMIKVHGSGNDFYLLDQTQFQAPLSDADLKQLAINICKRDGAGLYDGADGVLVVDKSEHPQVLGRMRVINADGTEASMCGNGLRTVARYLGTQNSQEDFRVQTMYADLKVQAVADFAAHVPAYSVEISPVTFDAQTLGMHANNDATTIINEKIPALSADLKFSAVAVPNPHLIAFVDHDTLVGPELGRIGEWMNDGKNQIFPDGVNVSFVEVLGPNSIFVRTFERGVGFTNACGTAMSASSLMYVLLHQESTDFNQEIHVTNPGGMVKTVVHQGADEEYWMELIGNATFVRIVTLPLEDALQGDYSPVTATETGEQVAYEDFVANLAKA | not soluble
4 | MGSDKIHHHHHHMAVSAKYDEFNHWWATEGDWVEEPNYRRNGMSGVQCVERNGKKLYVKRMTHHLFHSVRYPFGRPTIVREVAVIKELERAGVIVPKIVFGEAVKIEGEWRALLVTEDMAGFISIADWYAQHAVSPYSDEVRQAMLKAVALAFKKMHSINRQHGCCYVRHIYVKTEGNAEAGFLDLEKSRRRLRRDKAINHDFRQLEKYLEPIPKADWEQVKAYYYAM | not soluble
5 | MGSDKIHHHHHHMAYFMLLMTTPIQATIQQSMALAKAHYENFPVASVLLPKDLRAPVGLVYAFARQADDFADEGELSPEERLALLDGFRSQLDQIKHGATPDTPLFQALQAMIQERDLPLEPFYDLLSAFSQDVVKARYANFGEVIDYCRRSANPVGRLMLHLYKQATPRNVALSDAICTSLQLINFLQDVDVDYRKNRIYLPLDELQKYNITEQQIAGQHSGGTWSLFMEFQVNRTRKLLQSGAPLGLALPGRIGLEMRMIIAGGERILKKLHHVRGDVFNQRPTLKPTDWAYMLYRAVRKK | not soluble
6 | MGSDKIHHHHHHMAYRSAPLYEDVIWRTHLQPQDPTLAQAVRATIAKHREHLLEFIRLDEPAPLNAMTLAQWSSPNVLSSLLAVYSDHIYRNQPMMIRENKPLISLWAQWYIGLMVPPLMLALLTQEKALDVSPEHFHAEFHETGRVACFWVDVCEDKNATPHSPQHRMETLISQALVPVVQALEATGEINGKLIWSNTGYLINWYLTEMKQLLGEATVESLRHALFFEKTLTNGEDNPLWRTVVLRDGLLVRRTCCQRYRLPDVQQCGDCTLK | not soluble
7 | MGSDKIHHHHHHMCQGLMTHSRCVKSNTMFSIRIKAGRKAYEQIRDGGFSCDRISAFFAPAAGPRWLVATGFDLTLLKAGLLGRKKPVQLIGSSSGAWRFAAWVQPEAEKSYLNLMEAYIRIPYHKDDRAGIVLQNLINVVNSYIEDDALPFALAHKHYRLAVLTARVRHLVASESSWIQSSGLFLCFLMNALSRSTLDHFTERVVFYNGPNPPGFCLKSPFRGRFIQLNRTNFKHAILASGAIPLFVAGIRDIYGAPRGVYRDGGLVDYHQTYDFAESDDDMTLFFHHQERIIPGWFDKRLKHRRTPDVLLDHTLMVFPTEDFVSTLPLGKLPDREDFRSFMDDPATRIRNWQEAVRRSAPLGEQFFELVESGKLRSMVERI | not soluble
